Results on seven molecules are retold here after patent US8980581B2, “Site-specific incorporation of amino acids into molecules” (California Institute of Technology, priority 2006, dated 2015).

Converted amounts (≈) assume the structure as drawn. Where two headings read alike, the source gives them in different places.

In series [1] the target is modified yeast PheRS (T415G) and tRNA^Phe with an amber suppressor (Saccharomyces cerevisiae, UniProt P15625, T415G). In kind it is cell-based. The note with it: FIG. 13 mass spectra.
In series [2] the target is (T415A) yeast phenylalanine aminoacyl tRNA synthetase (PheRS) (Saccharomyces cerevisiae, UniProt P15625, T415A). In kind it is biochemical.
(T415A) yeast phenylalanine aminoacyl tRNA synthetase (PheRS), sequence (P15624 whole entry): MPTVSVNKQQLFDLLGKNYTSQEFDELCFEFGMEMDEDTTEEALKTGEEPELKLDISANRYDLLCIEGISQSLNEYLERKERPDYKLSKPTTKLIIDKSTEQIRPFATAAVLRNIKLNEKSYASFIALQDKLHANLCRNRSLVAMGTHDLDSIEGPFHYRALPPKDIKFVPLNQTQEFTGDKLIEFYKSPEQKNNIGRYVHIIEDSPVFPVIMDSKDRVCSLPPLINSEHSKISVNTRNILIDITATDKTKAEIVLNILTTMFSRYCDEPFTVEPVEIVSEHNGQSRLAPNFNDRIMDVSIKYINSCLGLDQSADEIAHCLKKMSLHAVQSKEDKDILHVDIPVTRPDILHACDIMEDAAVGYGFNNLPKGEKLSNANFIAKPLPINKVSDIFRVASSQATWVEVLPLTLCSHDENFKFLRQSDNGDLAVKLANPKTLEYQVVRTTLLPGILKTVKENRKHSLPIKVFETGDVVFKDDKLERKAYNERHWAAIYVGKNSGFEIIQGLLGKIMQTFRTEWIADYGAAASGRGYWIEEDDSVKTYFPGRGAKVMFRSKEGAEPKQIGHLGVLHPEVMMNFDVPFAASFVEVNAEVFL
(T415A) yeast phenylalanine aminoacyl tRNA synthetase (PheRS), sequence (P15625 whole entry T415A): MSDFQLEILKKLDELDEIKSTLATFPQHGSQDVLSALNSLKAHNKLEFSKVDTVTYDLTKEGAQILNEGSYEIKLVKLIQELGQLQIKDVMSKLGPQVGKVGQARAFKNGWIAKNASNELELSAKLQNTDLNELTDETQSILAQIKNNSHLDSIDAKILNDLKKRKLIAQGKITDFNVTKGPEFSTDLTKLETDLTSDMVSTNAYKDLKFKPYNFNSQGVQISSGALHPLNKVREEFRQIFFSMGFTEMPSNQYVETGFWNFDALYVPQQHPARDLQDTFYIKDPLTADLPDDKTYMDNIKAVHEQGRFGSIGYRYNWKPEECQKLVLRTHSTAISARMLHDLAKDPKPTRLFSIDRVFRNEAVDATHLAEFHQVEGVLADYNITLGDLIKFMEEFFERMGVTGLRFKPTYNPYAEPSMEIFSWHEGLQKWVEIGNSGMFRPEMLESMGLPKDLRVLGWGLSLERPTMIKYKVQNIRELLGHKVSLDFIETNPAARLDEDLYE
Another series has as its system Escherichia coli. The conditions noted are these: E. coli cells, cited from earlier work.
For series [3], the system named is N[C@@H](Cc1c[nH]c2ccccc12)C(=O)O. Put plainly: purified protein, by the assay type. The note with it: pH 7.6.
Series [4] relates to N[C@@H](Cc1ccc2ccccc2c1)C(=O)O. Put plainly: purified protein, by the assay type. The note with it: pH 7.6.
The test system of a further series is N[C@@H](Cc1ccccc1)C(=O)O. In words: purified protein, by the assay type. The conditions noted are these: pH 7.6.
Series [5] addresses mu-yPheRS (Thr415Gly or Thr415Ala mutation in the α-subunit) (Saccharomyces cerevisiae, UniProt P15625, T415G). Put plainly: adenosine triphosphate-pyrophosphate exchange assay, activation of NaI and Phe by mu-yPheRS. Format: biochemical. As for the experimental part: The modified yeast PheRS (mu-yPheRS) was prepared by introduction of a Thr415Gly or Thr415Ala mutation in the α-subunit of the synthetase (Datta et al., J. Am. Chem. Soc. 124: 5652, 2002). The kinetics of activation of NaI and Phe by mu-yPheRS were analyzed in vitro via the adenosine triphosphate-pyrophosphate exchange assay. […] In addition, the T415G mutant was generated by four-primer mutagenesis.

Series [6] has as its target T1, mutant yeast PheRS with mutations in N412G, S418C, T415G and S437F (Saccharomyces cerevisiae, UniProt P15625, N412G/S418C/S437F/T415G).
T1 construct: expressed in transfected cells; host or cells: E. coli AFW and DHF cells carrying pQE9_GFP6/GFP9_yPheRS library plasmids
Put plainly: yeast PheRS library GFP/FACS screening, incorporation at UUU codon. The conditions noted are these: mutant yPheRS N412G, S437F after two cycles of screening. In kind it is cell-based.

Substrate in series [7]: N[C@@H](Cc1ccccc1)C(=O)O
Put plainly: ATP-PPi exchange of amino acids by wild type yPheRS, Example 3. Format: biochemical, Saccharomyces cerevisiae. The note with it: other: enzyme wild type; pH 7.6. As for the experimental part: The amino acid dependent ATP-PP; exchange reaction was used to evaluate the activation of non-natural amino acids by yPheRS. The assay was performed in 200 mincroliters of reaction buffer containing 50 mM HEPES (pH=7.6), 20 mM MgCl2, 1 mM DTT, 2 mM ATP and 2 mM [^32P]-PPi with specific activity of 0.2-0.5 TBq/mol. Depending on the activity of the various non-natural amino acids with the synthetase, the amino acid concentration varied from 10 microM to 5 mM and enzyme concentration varied from 10 nM to 100 nM. Aliquots of 20 microliters were removed from the reaction solution at various time points and quenched into 500 microliters of buffer solution containing 200 mM NaPPi, 7% w/v HClO4 and 3% w/v activated charcoal. The charcoal was spun down and washed twice with 500 microliters of 10 mM NaPPi and 0.5% HclO4 solution. The radio-labeled ATP absorbed into the charcoal was quantified via liquid scintillation methods. The specificity constants were calculated by nonlinear regression fit of the data to a Michaelis Menten model. The kinetic parameters for the ATP-PPi exchange of amino acids by the yPheRS (T415G), wild type yPheRS, and yPheRS_naph variant are shown in the table below.

mu-yPheRS (Thr415Gly or Thr415Ala mutation in the α-subunit), sequence (P15625 2-503 T415G): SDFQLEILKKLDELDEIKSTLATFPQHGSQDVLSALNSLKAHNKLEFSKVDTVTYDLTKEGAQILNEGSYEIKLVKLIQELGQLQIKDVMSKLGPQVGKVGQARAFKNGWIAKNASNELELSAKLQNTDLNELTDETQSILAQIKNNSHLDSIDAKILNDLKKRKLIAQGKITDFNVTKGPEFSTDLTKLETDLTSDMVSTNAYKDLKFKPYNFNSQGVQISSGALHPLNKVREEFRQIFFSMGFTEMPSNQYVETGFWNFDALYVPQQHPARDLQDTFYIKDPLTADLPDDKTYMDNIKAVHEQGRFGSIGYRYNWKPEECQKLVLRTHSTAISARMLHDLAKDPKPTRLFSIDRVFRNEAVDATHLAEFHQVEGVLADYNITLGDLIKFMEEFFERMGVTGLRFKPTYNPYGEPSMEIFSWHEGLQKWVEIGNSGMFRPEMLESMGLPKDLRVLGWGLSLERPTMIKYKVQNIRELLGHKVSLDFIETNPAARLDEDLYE
mu-yPheRS (Thr415Gly or Thr415Ala mutation in the α-subunit), sequence (P15624 2-595, further chain): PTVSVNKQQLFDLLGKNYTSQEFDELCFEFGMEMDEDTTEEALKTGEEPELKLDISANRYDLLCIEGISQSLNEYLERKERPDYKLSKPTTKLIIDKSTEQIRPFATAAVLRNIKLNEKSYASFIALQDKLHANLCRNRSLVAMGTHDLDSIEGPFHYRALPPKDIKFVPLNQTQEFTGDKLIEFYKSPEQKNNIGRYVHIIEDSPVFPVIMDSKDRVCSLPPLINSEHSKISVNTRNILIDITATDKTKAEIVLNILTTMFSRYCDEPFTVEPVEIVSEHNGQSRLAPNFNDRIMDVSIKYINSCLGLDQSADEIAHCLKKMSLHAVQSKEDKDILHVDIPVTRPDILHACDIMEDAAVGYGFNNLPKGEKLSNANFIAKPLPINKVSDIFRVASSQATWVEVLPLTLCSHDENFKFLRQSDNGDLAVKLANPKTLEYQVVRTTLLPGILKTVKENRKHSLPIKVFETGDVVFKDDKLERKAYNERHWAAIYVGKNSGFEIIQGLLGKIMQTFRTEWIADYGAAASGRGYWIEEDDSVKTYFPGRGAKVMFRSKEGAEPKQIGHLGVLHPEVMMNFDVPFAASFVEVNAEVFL

With `C#Cc1ccc(C[C@H](N)C(=O)O)cc1` [p-ethynyl-phenylalanine], the “incorporation into a test protein” value in series [1] is “incorporated into a test protein”.
Turning to `N[C@@H](Cc1ccc(Br)cc1)C(=O)O` [bromophenylalanine, p-bromo-phenylalanine], the “preference for bromophenylalanine than for naturally occurring phenylalanine” value in [2] is given as 5 fold.
The IC50 is the concentration needed to halve the response being measured. With `CC1(C)S[C@@H]2[C@H](NC(=O)[C@H](N)c3ccccc3)C(=O)N2[C@H]1C(=O)O` [ampicillin], the results for the IC50 entry in the series on Escherichia coli (SctRNAGInCUA coexpressed with ScGInRS) and in the series on Escherichia coli (only SctRNAGInCUA expressed) were “about 500 μg/mL” and 20 µg/mL (≈ 57.2 µM), respectively.
By Km is commonly meant the concentration of substrate that gives half-maximal velocity. A word on the kcat: it is the maximal rate divided by the concentration of active sites. As a reminder, the kcat/Km is the second-order rate constant that governs catalysis at low substrate concentration. With “yPheRS (T415G) (Saccharomyces cerevisiae S288C; T415G)”, in series [3] (other: enzyme T415G), the Km is 2.83 ± 1.6 µM, the kcat came out at 0.153 ± 0.003 s⁻¹ and the kcat/Km is 63200 ± 34600 M⁻¹ s⁻¹. Moreover, in series [4] (other: enzyme T415G), the Km is 7.03 ± 0.14 µM, the kcat came out at 0.208 ± 0.04 s⁻¹ and the kcat/Km was 29500 ± 5850 M⁻¹ s⁻¹. Further, in the series on N[C@@H](Cc1ccccc1)C(=O)O (other: enzyme T415G), the Km was determined as 55 ± 14 µM, the kcat stood at 0.202 ± 0.11 s⁻¹ and the kcat/Km amounted to 3510 ± 1130 M⁻¹ s⁻¹.
As to “yPheRS_naph variant (Saccharomyces cerevisiae S288C; N412G/S418C/S437F/T415G)”, in series [3] (other: enzyme naph), the Km was determined as 1424 ± 597 µM, the kcat was determined as 0.0035 ± 0.0009 s⁻¹ and the kcat/Km came to 2.52 ± 0.44 M⁻¹ s⁻¹. Moreover, in series [4] (other: enzyme naph), the Km worked out at 2030 ± 691 µM, the kcat stood at 0.03 ± 0.018 s⁻¹ and the kcat/Km stood at 14.5 ± 4.22 M⁻¹ s⁻¹. In the series with N[C@@H](Cc1ccccc1)C(=O)O (other: enzyme naph), the Km stood at 11010 ± 2688 µM, the kcat stood at 0.0095 ± 0.0021 s⁻¹ and the kcat/Km worked out at 0.855 ± 0.007 M⁻¹ s⁻¹.
As for `N[C@@H](Cc1ccc2ccccc2c1)C(=O)O` [2Nal, 3-(2-naphthyl)alanine], the “specificity constant (kcat/KM), fold larger than that for Phe” value in series [5] is listed as 8 fold. The “incorporation at UUU codon” value in [6] is “around 90%”.

B1: wild type yPheRS (Saccharomyces cerevisiae S288C) (protein)
chain: MSDFQLEILKKLDELDEIKSTLATFPQHGSQDVLSALNSLKAHNKLEFSKVDTVTYDLTKEGAQILNEGSYEIKLVKLIQELGQLQIKDVMSKLGPQVGKVGQARAFKNGWIAKNASNELELSAKLQNTDLNELTDETQSILAQIKNNSHLDSIDAKILNDLKKRKLIAQGKITDFNVTKGPEFSTDLTKLETDLTSDMVSTNAYKDLKFKPYNFNSQGVQISSGALHPLNKVREEFRQIFFSMGFTEMPSNQYVETGFWNFDALYVPQQHPARDLQDTFYIKDPLTADLPDDKTYMDNIKAVHEQGRFGSIGYRYNWKPEECQKLVLRTHSTAISARMLHDLAKDPKPTRLFSIDRVFRNEAVDATHLAEFHQVEGVLADYNITLGDLIKFMEEFFERMGVTGLRFKPTYNPYTEPSMEIFSWHEGLQKWVEIGNSGMFRPEMLESMGLPKDLRVLGWGLSLERPTMIKYKVQNIRELLGHKVSLDFIETNPAARLDEDLYE
B1: in [7], the Km came out at 3.85 ± 0.99 µM, the kcat is 0.181 ± 0.011 s⁻¹ and the kcat/Km was 51000 ± 22700 M⁻¹ s⁻¹.
